Molecular target: human insulin (Homo sapiens, UniProt P01308;P01308 25-54;90-110)
Assay: graphene field-effect transistor

Chain of human insulin (P01308 25-54, chain 1 of 2): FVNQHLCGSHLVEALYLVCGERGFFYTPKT
Chain of human insulin (P01308 90-110, chain 2 of 2): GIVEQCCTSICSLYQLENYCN

GGTGGTGGGGGGGGTTGGTAGGGTGTCTTC (structured_DNA, 5'-NH2 (amine)) [IGA3]
Kd: 35 nM

— publication PMC7875320
